Test results as given in the Human Domainome abundance scans (Beltran et al. 2025).
± gives the uncertainty stated by the source.

B1: Probable E3 ubiquitin-protein ligase MID2, residues 191 to 235; numbered along this chain, Q9UJV3 (parent)
chain: RGITCLDHENEKVNMYCVSDDQLICALCKLVGRHRDHQVASLNDR
B2: Triacylglycerol hydrolase DDHD2, residues 389 to 447; numbered along this chain, O94830 (parent)
chain: TLEEDLKKLQLSEFFDIFEKEKVDKEALALCTDRDLQEIGIPLGPRKKILNYFSTRKNS

Variants of: B1
Assay: abundance fitness (aPCA) (normalised: wild type 0, dead -1); higher = more abundant; growth selection in yeast, the domain comes from the species named
Conditions: Homo sapiens

Row | Variant | abundance fitness
1 | L6N | -0.22 ± 0.26
2 | L6P | 0.156 ± 0.058
3 | L6Y | 0.064 ± 0.13
4 | L6C | 0.069 ± 0.055
5 | M15K | -0.176 ± 0.12
6 | M15C | 0.259 ± 0.21
7 | M15Q | 0.166 ± 0.07
8 | M15G | 0.081 ± 0.053
9 | M15A | 0.063 ± 0.056
10 | M15V | -0.277 ± 0.069
11 | M15L | 0.003 ± 0.063
12 | M15D | 0.001 ± 0.064
13 | M15P | -0.251 ± 0.07
14 | M15F | -0.069 ± 0.25
15 | M15T | -0.1 ± 0.069
16 | M15R | -0.118 ± 0.06
17 | M15W | 0.11 ± 0.058
18 | G2M | -0.081 ± 0.068
19 | G2Y | 0.023 ± 0.12
20 | G2W | -0.403 ± 0.057
21 | G2A | -0.135 ± 0.054
22 | G2E | 0.115 ± 0.063

Row | Variant | abundance fitness
23 | G2K | 0.042 ± 0.25
24 | G2D | 0.108 ± 0.085
25 | G2C | -0.511 ± 0.089
26 | G2P | -0.222 ± 0.089
27 | G2Q | -0.181 ± 0.091
28 | G2R | -0.033 ± 0.045
29 | G2V | -0.216 ± 0.061
30 | G2L | -0.218 ± 0.061
31 | G2I | -0.522 ± 0.24
32 | G2T | -0.06 ± 0.086
33 | G2S | -0.069 ± 0.065
34 | Y16C | -0.176 ± 0.14
35 | Y16A | 0.077 ± 0.089
36 | Y16D | -0.067 ± 0.12
37 | E11G | -0.245 ± 0.043
38 | E11T | -0.223 ± 0.073
39 | E11Y | 0.129 ± 0.45
40 | E11P | -0.838 ± 0.17
41 | E11L | -0.524 ± 0.074
42 | E11M | -0.174 ± 0.098
43 | E11K | -0.33 ± 0.14
44 | E11S | -0.236 ± 0.059

Row | Variant | abundance fitness
45 | E11F | -0.248 ± 0.15
46 | E11C | -0.063 ± 0.07
47 | E11W | -0.215 ± 0.052
48 | E11R | -0.171 ± 0.05
49 | E11I | -0.334 ± 0.081
50 | E11V | -0.519 ± 0.054
51 | E11Q | -0.097 ± 0.065
52 | E11A | -0.177 ± 0.047
53 | K12S | 0.095 ± 0.068
54 | K12V | -0.083 ± 0.065
55 | K12D | -0.012 ± 0.088
56 | K12E | 0.104 ± 0.065
57 | K12L | -0.049 ± 0.069
58 | K12A | -0.095 ± 0.059
59 | K12W | -0.229 ± 0.074
60 | K12P | 0.124 ± 0.059
61 | K12Q | -0.103 ± 0.082
62 | K12C | -0.389 ± 0.16
63 | K12I | -0.244 ± 0.15
64 | K12G | -0.102 ± 0.05
65 | K12R | -0.042 ± 0.049

Variants of: B2
Assay: as above
Conditions: Homo sapiens

Row | Variant | abundance fitness
66 | F14R | -0.671 ± 0.075
67 | F14P | -0.581 ± 0.097
68 | F14Y | -0.506 ± 0.28
69 | N51Q | 0.166 ± 0.1
70 | N51I | -0.93 ± 0.17
71 | N51R | 0.042 ± 0.067
72 | D16R | 0.049 ± 0.047
73 | D16Q | 0.106 ± 0.072
74 | D16T | -0.019 ± 0.066
75 | D16S | -0.057 ± 0.056
76 | D16A | 0.026 ± 0.049
77 | D16L | -0.33 ± 0.06
78 | D16Y | -0.435 ± 0.2
79 | D5C | -0.033 ± 0.1
80 | D5V | -0.343 ± 0.06
81 | D5A | -0.144 ± 0.06
82 | E26G | 0.27 ± 0.063
83 | E26F | -0.223 ± 0.14
84 | E26T | -0.173 ± 0.11
85 | S12V | -0.099 ± 0.052
86 | S12C | -0.22 ± 0.093
87 | G44S | 0.167 ± 0.048
88 | G44R | -0.056 ± 0.055
89 | G44H | 0.101 ± 0.059
90 | F53E | 0.221 ± 0.069
91 | K47G | 0.101 ± 0.061

Row | Variant | abundance fitness
92 | D35R | 0.053 ± 0.07
93 | D35T | -0.264 ± 0.087
94 | D35F | -0.311 ± 0.12
95 | L28N | -0.404 ± 0.11
96 | L28V | 0.073 ± 0.07
97 | L28A | -0.352 ± 0.083
98 | I39A | -0.204 ± 0.074
99 | I39T | -0.336 ± 0.089
100 | L30K | 0.642 ± 0.083
101 | L30D | 0.423 ± 0.093
102 | L6F | 0.134 ± 0.23
103 | L6P | -0.35 ± 0.1
104 | E4H | -0.33 ± 0.098
105 | S54Y | -0.443 ± 0.12
106 | S54H | -0.208 ± 0.14
107 | S54I | -0.146 ± 0.11
108 | I49W | -0.477 ± 0.11
109 | I49D | -0.125 ± 0.097
110 | L43S | 0.617 ± 0.048
111 | L43G | 0.231 ± 0.052
112 | P42N | -0.35 ± 0.14
113 | P42Y | -0.83 ± 0.19
114 | E3T | -0.705 ± 0.089
115 | T32N | -0.217 ± 0.13
116 | T32Y | -0.388 ± 0.12
117 | A29M | -0.156 ± 0.11

Row | Variant | abundance fitness
118 | A29T | 0.032 ± 0.089
119 | N58Y | -0.08 ± 0.14
120 | Y52S | -0.15 ± 0.072
121 | Y52P | -0.313 ± 0.12
122 | Y52M | -0.21 ± 0.082
123 | L11Y | -1.15 ± 0.19
124 | G40E | -0.556 ± 0.1
125 | G40H | -0.502 ± 0.19
126 | G40R | -0.411 ± 0.082
127 | K20Y | -0.324 ± 0.14
128 | K20G | -0.26 ± 0.12
129 | K20D | -0.126 ± 0.14
130 | E21K | 0.809 ± 0.093
131 | C31S | 0.165 ± 0.063
132 | C31W | 0.44 ± 0.08
133 | Q37P | -0.996 ± 0.16
134 | Q10Y | -0.191 ± 0.17
135 | Q10T | -0.241 ± 0.08
136 | E38V | -0.036 ± 0.065
137 | E38I | -0.294 ± 0.11
138 | E38P | -0.888 ± 0.15
139 | D33T | -0.238 ± 0.093
140 | K7Q | 0.083 ± 0.12
141 | K7R | 0.108 ± 0.074
142 | K7H | -0.07 ± 0.16
143 | K7A | -0.032 ± 0.086

Row | Variant | abundance fitness
144 | E13Q | -0.215 ± 0.15
145 | F18W | -0.535 ± 0.11
146 | F18I | -0.16 ± 0.16
147 | F18H | -0.533 ± 0.22
148 | F18M | -0.225 ± 0.15
149 | K48A | 0.106 ± 0.068
150 | K48D | -0.184 ± 0.1
151 | K48R | 0.088 ± 0.064
152 | K48N | -0.344 ± 0.11
153 | R34Y | 0.367 ± 0.093
154 | L50C | -0.215 ± 0.13
155 | D24R | -0.396 ± 0.096
156 | D24P | -0.561 ± 0.18
157 | P45G | -0.168 ± 0.074
158 | K25Q | -0.285 ± 0.097
159 | K25N | -0.494 ± 0.16
160 | T1L | -0.488 ± 0.18
161 | A27D | 0.437 ± 0.11
162 | F15P | -0.537 ± 0.093
163 | E19W | -0.463 ± 0.092
164 | E19R | -0.007 ± 0.062
165 | K57V | -0.175 ± 0.072
166 | K57C | -0.269 ± 0.093
167 | K57S | -0.115 ± 0.072
